Laboratory results published in patent US20120021972A1 (CADILA HEALTHCARE, published 2012).
Starred links: 1 amine or outer side, 2 acyl side, 3 side chain; linkers in the order of their positions; H or OH if unused. Non-standard residues stand in square brackets, D forms with d. No end group written: not given here. *: point of attachment. ACPP = 2-amino-5-(3-chlorophenyl)pentanoic acid, O=C([C@H](CCCc1cccc(Cl)c1)N[*:1])[*:2]; 2CF3,4F‑APPA = 2-amino-5-(4-fluoro-2-(trifluoromethyl)phenyl)pentanoic acid; Bip(2'-Et-4'-OMe) = CCc1cc(OC)ccc1-c1ccc(C[C@H](N)C(=O)O)cc1; Nva(5-(3,5-Me2Ph)) = Cc1cc(C)cc(CCC[C@H](N)C(=O)O)c1; 2F‑APPA = 2-amino-5-(2-fluorophenyl)pentanoic acid; αMePhe(2-F) = C[C@](N)(Cc1ccccc1F)C(=O)O; hhPhe = N[C@@H](CCCc1ccccc1)C(=O)O; aThr = C[C@H](O)[C@H](N)C(=O)O; CNB = not defined here; Ac3c = NC1(C(=O)O)CC1; Aib = CC(C)(N)C(=O)O; Moc = COC(=O)*

Key:
human GLP-1 receptor = human GLP-1 receptor (human, UniProt P43220 24-463); assay: cell-based or functional assay
human glucagon receptor = human glucagon receptor (human, UniProt P47871 26-477); assay: cell-based or functional assay

human GLP-1 receptor, sequence (P43220 24-463): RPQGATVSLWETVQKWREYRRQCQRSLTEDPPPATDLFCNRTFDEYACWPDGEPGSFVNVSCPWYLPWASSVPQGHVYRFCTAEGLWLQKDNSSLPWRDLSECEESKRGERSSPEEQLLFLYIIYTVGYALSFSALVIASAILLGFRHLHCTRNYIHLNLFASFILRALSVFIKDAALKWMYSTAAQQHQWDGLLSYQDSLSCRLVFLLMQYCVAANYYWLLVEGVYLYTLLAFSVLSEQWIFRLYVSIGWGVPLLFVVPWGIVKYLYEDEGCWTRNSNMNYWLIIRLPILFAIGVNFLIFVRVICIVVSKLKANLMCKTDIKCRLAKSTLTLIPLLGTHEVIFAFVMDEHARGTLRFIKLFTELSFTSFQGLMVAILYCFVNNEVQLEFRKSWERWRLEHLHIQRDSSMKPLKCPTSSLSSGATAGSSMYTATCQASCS

| cAMP release, % activity, 1 nM (human GLP-1 receptor) | cAMP release, % activity, 10 nM (human GLP-1 receptor) | cAMP release, % activity, 100 nM (human GLP-1 receptor) | cAMP release, % activity, 1 µM (human GLP-1 receptor) | cAMP release, % activity, 10 µM (human GLP-1 receptor) | inhibition of cAMP production, 1 nM (human glucagon receptor) | inhibition of cAMP production, 10 nM (human glucagon receptor) | inhibition of cAMP production, 100 nM (human glucagon receptor) | inhibition of cAMP production, 1 µM (human glucagon receptor) | inhibition of cAMP production, 10 µM (human glucagon receptor) | Binder |
| --- | --- | --- | --- | --- | --- | --- | --- | --- | --- | --- |
| 99% | 99% | 99% | 99% | 99% | 9 pmol/ml/µg prt | 6 pmol/ml/µg prt | 5 pmol/ml/µg prt | 3 pmol/ml/µg prt | 0 pmol/ml/µg prt | H[Aib][CNB]G[aThr][αMePhe(2-F)][aThr]SD[Bip(2'-Et-4'-OMe)][hhPhe] (reading uncertain; also: reduced (CH2) bonds between 9-10 and 10-11) [Seq. ID. No. 202: H-Aib-(CNB)-G-T(allo)-(α-Me-2F-Phe)-T(allo)-SD-(CH2)-Bip(OMe)-(CH2)-(APPA)] |
| 96% | 99% | 99% | 99% | 99% | 4 pmol/ml/µg prt | 2 pmol/ml/µg prt | 0 pmol/ml/µg prt | 0 pmol/ml/µg prt | 0 pmol/ml/µg prt | Ac-H[Aib][CNB]GT[αMePhe(2-F)]TSD[Bip(2'-Et-4'-OMe)][hhPhe] (reading uncertain) [Seq. ID. No. 205: CH3CO-H-Aib-(CNB)-GT-(α-Me-2F-Phe)-TSD-Bip(OMe)-(APPA)] |
| 40% | 81% | 89% | 96% | 99% | 0 pmol/ml/µg prt | 0 pmol/ml/µg prt | 0 pmol/ml/µg prt | 0 pmol/ml/µg prt | 0 pmol/ml/µg prt | Ac-H[Aib][CNB]GT[αMePhe(2-F)]TSD[Bip(2'-Et-4'-OMe)][2F‑APPA] (reading uncertain) [Seq. ID. No. 207: CH3CO-H-Aib-(CNB)-GT-(α-Me-2F-Phe)-TSD-Bip(OMe)-(2F-APPA)] |
| 99% | 99% | 99% | 99% | 99% | 17 pmol/ml/µg prt | 15 pmol/ml/µg prt | 12 pmol/ml/µg prt | 8 pmol/ml/µg prt | 6 pmol/ml/µg prt | H[Ac3c]QGTFTSD[Bip(2'-Et-4'-OMe)][Nva(5-(3,5-Me2Ph))] [Seq. ID. No. 22: H-(ACP)-QGTFTSD-Bip(OMe)-(ADMP)] |
| 38% | 78% | 86% | 95% | 98% | 22 pmol/ml/µg prt | 21 pmol/ml/µg prt | 20 pmol/ml/µg prt | 18 pmol/ml/µg prt | 18 pmol/ml/µg prt | H[Aib][CNB]GTFTSD[Bip(2'-Et-4'-OMe)][Nva(5-(3,5-Me2Ph))] (reading uncertain) [Seq. ID. No. 30: H-Aib-(CNB)-GTFTSD-Bip(OMe)-(ADMP)] |
| 99% | 99% | 99% | 99% | 99% | 0 pmol/ml/µg prt | 0 pmol/ml/µg prt | 0 pmol/ml/µg prt | 0 pmol/ml/µg prt | 0 pmol/ml/µg prt | H[Aib]QGTFTSD[Bip(2'-Et-4'-OMe)][ACPP] [Seq. ID. No. 19: H-Aib-QGTFTSD-Bip(OMe)-(ACPP)] |
| 55% | 88% | 92% | 99% | 99% | 10 pmol/ml/µg prt | 8 pmol/ml/µg prt | 6 pmol/ml/µg prt | 4 pmol/ml/µg prt | 1 pmol/ml/µg prt | Moc-H[Aib]QG[aThr][αMePhe(2-F)][aThr]SD[Bip(2'-Et-4'-OMe)][2F‑APPA] (also: reduced (CH2) bonds between 9-10 and 10-11) [Seq. ID. No. 200: CH3OCO-H-Aib-QG-T(allo)-(α-Me-2F-Phe)-T(allo)-SD-(CH2)-Bip(OMe)-(CH2)-(2F-APPA)] |
| 45% | 84% | 90% | 99% | 99% | 9 pmol/ml/µg prt | 6 pmol/ml/µg prt | 5 pmol/ml/µg prt | 3 pmol/ml/µg prt | 0 pmol/ml/µg prt | H[Ac3c]QGTFTSD[Bip(2'-Et-4'-OMe)][2CF3,4F‑APPA] [Seq. ID. No. 72: H-(ACP)-QGTFTSD-Bip(OMe)-(2CF3,4F-APPA)] |
